Data on three substances can be found in paper doi:10.1101/2025.03.06.641855.

Broadly, the Kd is the constant that tells how readily two partners part at equilibrium. Read a high Kd as a looser complex.

The target of one assay is OppA-ev2 (evolved OppA variant with seven mutations) (E. coli (K12)) (UniProt P23843). Put plainly: MST.
The substance G-SisoK, isopeptide-linked tripeptide came in with a Kd of 37 µM.
The same measure, in the same setting: then SisoK, isopeptide-linked dipeptide, with 300 µM.
Still for that read-out and setting: the same measure for linear GSK tripeptide: 275 µM.

The target in the next assay is wt-OppA, periplasmic binding protein of the oligopeptide permease (Opp) transporter (E. coli (K12)) (UniProt P23843). Put plainly: MST.
As for G-SisoK, isopeptide-linked tripeptide, the Kd is 50 µM.
Same read-out and setting: then SisoK, isopeptide-linked dipeptide, with 300 µM.
Consider linear GSK tripeptide, for which the Kd worked out at 71 µM.
